Experimental data as given in the DeepSol protein solubility set.

Assay: soluble on expression in E. coli; label from the status in PepcDB or PDB records

| Sequence | soluble on expression in E. coli |
| --- | --- |
| MEDVWLQAQSNLAKVLTHQTFTTWIEPIRFAGAHKNTLLLEAPNQFIRDRVRESYLPMILESVRSLTDSHFQVELQVAARQQEKTAKSPRKSHTEDELGPVESEKCAPAEFSTNLNAKYTFDTFVCGGSNQFAHAAALSVANNPAGKYNPLFIYGGVGLGKTHLLTAIGNQVLTKNRKARVCFYTSEKFMNELINCLRYQKMEQFRNKFRKMDLLLIDDIQFIAGKERTQEEFFHTFNALYESHKQIVVTSDKFPKDIPGLEERLRSRFEWGLIADIQPPDTETKVAILSKKADSDGIRLPDDVALFLASSASTNVRELEGMLIRLGAVASLTGKNITLDMAREVLKDIIVDKTKEVTVEMIQKYVADHFNIKVAELKSDKRLKALVVPRQIAIYLCRDLTKASYPDIGEKFGGKDHSTIIHSVKKVDKLLSQDFELKSTIETLRKGLLNLEHHHHHH | soluble |
| MAHHHHHHVDDDDKMVPYTVRFTTTARRDLHKLPPRILAAVVEFAFGDLSREPLRVGKPLRRELAGTFSARRGTYRLLYRIDDEHTTVVILRVDHRADIYRR | soluble |
| MHWQTHTVFNQPIPLNNSNLYLSDGALCEAVTREGAGWDSDFLASIGQQLGTAESLELGRLANVNPPELLRYDAQGRRLDDVRFHPAWHLLMQALCTNRVHNLAWEEDARSGAFVARAARFMLHAQVEAGSLCPITMTFAATPLLLQMLPAPFQDWTTPLLSDRYDSHLLPGGQKRGLLIGMGMTEKQGGSDVMSNTTRAERLEDGSYRLVGHKWFFSVPQSDAHLVLAQTAGGLSCFFVPRFLPDGQRNAIRLERLKDKLGNRSNASCEVEFQDAIGWLLGLEGEGIRLILKMGGMTRFDCALGSHAMMRRAFSLAIYHAHQRHVFGNPLIQQPLMRHVLSRMALQLEGQTALLFRLARAWDRRADAKEALWARLFTPAAKFVICKRGMPFVAEAMEVLGGIGYCEESELPRLYREMPVNSIWEGSGNIMCLDVLRVLNKQAGVYDLLSEAFVEVKGQDRYFDRAVRRLQQQLRKPAEELGREITHQLFLLGCGAQMLKYASPPMAQAWCQVMLDTRGGVRLSEQIQNDLLLRATGGVCV | soluble |
| MFVRTAVVLLLVASTAYTFVAPPSQATLACITCVATVKGVEAKMLHEGGNVAKHDVDAICLKEVPTHSAEHLCEEYGEHEVDVMVTLIKQDVPPKMICQELQKC | not soluble |
| MARRIGHPYQNRTPPKRKKPRTSFTRIQVAELEKRFHKQKYLASAERAALARGLKMTDAQVKTWFQNRRTKWRRQTAEEREAERQAANRLMLS | soluble |
| MKTEEMKFINESEFKKLKHYFEQKNTTSSLVLLVALTTGGRFSEIAKLKREDLDIKNNKIHLRGTKTETSDRIISIDTVTMKRIQSFIDSRPTNISGYIFTVDGKTITNAAVNKVLRKACANLNIKEITIHSLRHSFCSILIHHGFSILYISKHLGHSNPATTQSIYSHLLEHHHHHH | soluble |
| MSGRHEACITPARRARQCLNRGNTMRHLPLFSLMLFPASVYAADSDGANLN | not soluble |
| NRMKLMIVGNTGSGKTTLLQQLMKTKKSDLGMQSATVGIDVKDWPIQIRDKRKRDLVLNVWDFAGREEFYSTHPHFMTQRALYLAVYDLSKGQAEVDAMKPWLFNIKARASSSPVILVGTHLDVSDEKQRKACMSKITKELLNKRGFPAIRDYHFVNATEESDALAKLRKTIINESLNFKIRDQ | soluble |
| MEKLLIEGGRALNGTIRVSGAKNSAVALIPATILADTPVTIGGVPNISDVKMLGDLLEEIGGRVTYGQEEEMVVDPSNMVAMPLPNGKVKKLRASYYLMGAMLGRFKKAVIGLPGGCHLGPRPIDQHIKGFEALGAHVTNEQGAIYLRADELRGARIYLDVVSVGATINIMLAAVRAKGRTVIENAAKEPEIIDVATLLTSMGARIKGAGTDVIRIDGVDSLHGCHHTIIPDRIEAGTYMILGAASGGEVTVDNVIPQHLESVTAKLREAGVQVETNDDQITVNGDRRLKVVDIKTLVYPGFPTDLQQPFTTLLTKAHGTGVVTDTIYGARFKHIDELRRMNAQIKVEGRSAIVTGPVLLQGAKVKASDLRAGAALVIAGLMADGITEVTGLEHIDRGYENIVDKLKGLGANIWREQMTKQEIEEMKNA | not soluble |
| MGSDKIHHHHHHMKVLLTRPQGRNQAMEEQLSLRDVAYLVTPLLSVVETTEQLNPTHLNNTDNLLFISSNAVDFAAQKLQQQFPTHCRYFAVGQATADSLAQYNINAFTSPEHSQDSEGLLSLAQLQDVDKQSFIIVRGLGGRETLAEQLQLRGANVNYWQVYQRAIPNLDGKAITQQWKSFGIDTIVVTSGEILSNLVELVPKELFAWLRACHIIVPSNRVELQAKAMGLSHISNANGANTQAILASLAL | not soluble |
| LKYMYKIDDDKKYILYCPTWRGNQRKEVTQINLKDLLKYLPENYEIIVKLHPNESHLRTRYNQIDNRIHCYFNELVDIQELYILSECMITDYSSTIFDYIHLNKPVFILQEDEQQYKQSVGFYFDLFEVGDFLKASLNERMLAKQICSTDYINYSKVVHRLMKQDSSKSSEKLMAEILGEPEYPSSSNCKQQIS | not soluble |
| MGSDKIHHHHHHMTAPKIIDMQALRIFLAAAKDQNMSIAASKLGLTQSAVSQAIGQLEEQFGIKLLDRNRRPLTLTSAGYVLYERGEQLVSAALNLKGAVLEAGHGVRPAIRLGLVDSVATTCGTSIIKQLMPRVAQLKLQTGLSFDVGAALIDRRVDLAITSEPMHRENGLVRYRVLTEQFVVIFSPGLEVADRENTNLALLSAQLPMIRYRSQSHLGRQAETVLRRADLEIPQFLEVDTADTLTSMVAGGLGWALTTPLCLLQAQEHAKRVGIGFLQSSGDSRSIYLLARGGKFDSLIKDTFDITVSVLKEECLARLAYIHPSLDRHAMMGEWPGIAGHSKTTGARRQPDISSEGIE | not soluble |
| SLVGYSAVSQPSPASFLLGPTLPPAPSIAFRLWRPYSMTARITSVEALPYRLPLTSKLAWGAHSALSAAEHVLVRVTLSDGSVGVAEATPRPTIYGETPGSVTAILQHLEPALLGLDIADEAALNRVRGSVAGNHTARGALDMALWEARAASRGQSLFDTLLGPHERVRVSFILGIAPPAEMLAEAERVVAAGVRCLKVKVGRHAAQDLQVIAELRRRYGDDVQLYADSNETLTLEQAPDVLAAMREAGLMYVEEPLPARDLRARAALHAAGVLPIVADDSCFTPADLERELDFDTFDVLNVKTARNGFTDGLQMLRRAAEHGKRGMVGSQASTGLGTLHAALLSTQAEVTEPCELSFVLKLGDDLLNRPIEFQDGWLNVPELREHRLDEDKLARYRI | soluble |
| MAHHHHHHMVIFFGRAQTRRVTGKVVVFGATTNVGKHLSLLLTLSPQVKELCCFDPLNDVTLRMTETRVRGIVKDLSHIDTGVVLRAVDDPQQWEPAMRNAQLVLICTGSIPNPSRLQRDLALAECAPEYLVAMELVARAAPHAIVGIASGPVNSLVPLAREVLLRHSAFDPRKLFGITSRDVMRTRVLFAKELHMNPYDVNVHVVGGKGDATVCPLITQTGFQLPHQRMVQLCEEVQRPENFTAGDHNSTGCRVDSQNVQGQEKFTCPTLSTANAAYEWVTSIMKAQRGDRGITECSFVESSIKRETPFFSSRVELGEEGAAQLLPLGALTPYEEELVAAAVPLIVEDVEAGLRLSKTGVDAVS | not soluble |
| MNNVTFEQLQETLYHEKLANGLDVYILPKTGFNKTYATFTTKYGSIDSEFIPLNQKEALHVPDGIAHFLEHKMFEDEEGDVFQLFSKQGASCNAFTSFTRTAYLFSSTTNVKKNVETLLDFVQHPYFTEESVEKEKGIIGQEITMYDDNPDWRNYFGVIENMYEHHPVKIDIAGTIPSISKITKDLLYTCYETFYHPSNMLLFIVGPVDVNEMMTLVKENQGKKEFKPAGDIQRFFPAEPEKVAKPHSVISMSVQTPKCLVGYKEKQPVRQGKDLLVRELGINVLLELMFGQGSKQYEQLDDEGLINDTFSFDHTSEYGFGFTIMGGDTKSPNRLAERIEEMVEAFKEQPLDEAAVKRVIKKKIGGFLRSLNSPEFIANQFTRYEFNKMNLFDVVPTLESLTVEKLTDILHDHFQKERFTVCQVKPEGYEEG | not soluble |
| MIIQCQVKSVQPLATHTYQILLQPEHAVAYQAGQYLMVVMGEKDKRPFSLASSPCRSNGELELHIGAADHSAFAHQVVEKFQQAHLNQTWVEVDVPHGNAALQESERPLLLIAGGTGFSYVRSILDHCLSQGKTQPIYLYWGARDAAQLYALNELQELAKQHAHLQVVPVVEQAQDDWAGKVGNVLQAINNDFASLEAFDIYIAGRFEMAGAAREQFTQNKQARRDRMFADAYAFI | not soluble |
| MNRLPTCLLAATLFLGSASLYAEDPACARVRLADPGWSDIAVTNATAAFLLESLGYQVKIDTLSVPIIYGGLRDGQVDAFLGGWMPAHQDYHDKFVASGQVERLGRNLDGTRFTLAVPRYVWDAGVHRFEDLAAQGQRFNRKLYGIGSGAPANQSIQKMIDANQFGLGDWKLVESSEQAMLAELGRAEKRQRWLVFLGWTPHPMNIRHDLRYLEGGEQYFGDRGQVYTLARKGYAAQCPNPARLLANLRFDLDMENRLMSDALEGTATPASATRAWLKANPRVLEAWLQGVTSRDGGDALAAVRGQP | not soluble |
| MGSDKIHHHHHHMRREKKKGSDDQMADENEEYLMETRFSAEHIGLKLLEKKIITEQQFEDALRRQKSRGGGLGDVLIELGYLTEERLNQLLNAFPSVPKTIEDTGLDASFLADLVLKHSLSLREFRLADMVRRVKLPLSIVDSIVETLQREKMLEVKGGDGLARATYRFSITGIGENRAAGLLEICRYVGPAPVSLSDYREKVLTQSIQRVVVNPLTLKNALSHLVINPDLLKALGPALTSGQTIFLYGPTGNGKSSIAEAIGNVLPGTIFVPYAVYVEGELITVFDPVNHVPAPSETEDGKMDHRWLQIRRPVIMTGGELTLRTLDLEFNPISKFYIAPLQMKANNGLFIIDDFGRQQIEPKMLLNRWIVPLEKRVDFLTLHTGMKFSIPFDQLVIFATNLKPMELADEAFLRRIRYKIFIDYPSKEDFEVIFRKACEMKNVAFDPKAFQFLQDIYEKLGIQRSANHPRDLLEHIIDQSRYYGQEPELTVEGVSAAWEQNFIKNF | not soluble |
| MGSDKIHHHHHHMSKPLNFVMISPHFPANFETFAVRLKECGFNTLGIADTPYEQLSENLRNSLTEYYRVDNMEDYEQVYRAVGYFAHKYGRIDRIESHNEYWLELDAKLRTDFNVPGYKNDDMLAIKTKAQMKEIFRQAGLKVAQGKVFNSDDEARKLAKKLKFPVIIKPNSGVGASDTYKIKSVQELEDFFSYKNAHVEYIMEEFIDGDIITFDGLTDKEGNIVFYSGLEYSECVLDTVENDNDMFYYVPREISTDLIKLGQKCVDAFNVRERFFHFEFFRVKKTGDLMPLEINCRPPGGLTIDMWNYANDFDVFREYANIVKENKFYTNITHPWNVVYISRKANKNYVNAIEDVQQKYSTNIISVQTVPGVFAKIMGEHGILARTETLDQMHEIAQFAQQKA | not soluble |
| MIEIAKIGDDFDRWQDLLALIMTSFAYMDGVIDPPSSAYRLTLENLAEKARAEIAFVALDSDELLGCLFCRPEPPASLYVGKLCVSPKAQGKGIGKLLLLQAEALARELALPALRLETRIELLSNHTKFAAWGFVKTAENAHAGYDRTTSIEMTKFLG | not soluble |
| TTQNELLNRIAELETKVAFQDNVIEELNQVLIHHQFVLDKLQTQVRHFANKFKNIQSSNVASQAEETPPPHY | not soluble |
| MIRHLEFKSRTRTDMIDITSAVQEQVRSAAVRNGVCHLFVLHTTAGITINEGADPAVQRDMVNFLDRLVPIDPYFTHAEGNSDAHIKSTLTGTSLTVFIVEGKLLLGSWQSIYLCEFDGPRHRRVAVKVVPDPLEHHHHHH | not soluble |
